The text below walks through data of patent publication US20210069244A1.

The assay has as its target CD19 antigen on CD19 positive RS4;11 and Raji cells (human) (UniProt P15391). Kind of assay: cell-based or functional assay.
Chain of UniProt P15391 (P15391 20-556): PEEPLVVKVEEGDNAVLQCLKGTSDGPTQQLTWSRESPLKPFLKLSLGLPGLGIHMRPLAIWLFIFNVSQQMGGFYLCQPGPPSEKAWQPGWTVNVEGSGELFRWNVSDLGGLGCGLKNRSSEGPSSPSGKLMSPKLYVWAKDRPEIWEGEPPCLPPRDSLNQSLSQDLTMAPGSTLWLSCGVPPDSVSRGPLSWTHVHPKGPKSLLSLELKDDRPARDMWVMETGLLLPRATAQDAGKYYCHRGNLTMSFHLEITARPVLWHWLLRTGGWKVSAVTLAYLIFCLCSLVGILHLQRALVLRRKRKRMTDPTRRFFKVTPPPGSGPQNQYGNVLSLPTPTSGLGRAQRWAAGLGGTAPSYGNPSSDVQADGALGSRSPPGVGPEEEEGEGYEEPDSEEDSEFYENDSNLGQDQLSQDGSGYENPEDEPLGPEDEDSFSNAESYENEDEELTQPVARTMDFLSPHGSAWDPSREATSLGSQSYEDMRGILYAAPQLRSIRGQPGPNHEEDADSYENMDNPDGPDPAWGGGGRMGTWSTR

On to FMC63 artificial CAR19, for which the cytotoxicity, RS4;11 cells, CAR19 T cell:tumor cell 5:1, donor 1, 4 h co-culture (calcein AM/PI flow cytometry) is 45.8%; the cytotoxicity, RS4;11 cells, CAR19 T cell:tumor cell 5:1, donor 2, 4 h co-culture (calcein AM/PI flow cytometry) was 65.6%; the cytotoxicity, RS4;11 cells, CAR19 T cell:tumor cell 10:1, donor 1, 4 h co-culture (calcein AM/PI flow cytometry) is 55.8%; the cytotoxicity, RS4;11 cells, CAR19 T cell:tumor cell 10:1, donor 2, 4 h co-culture (calcein AM/PI flow cytometry) was 77.1%. The cytotoxicity, Raji cells, CAR19 T cell:tumor cell 1:1, donor 1, 4 h co-culture (calcein AM/PI flow cytometry) is 4.17%; the cytotoxicity, Raji cells, CAR19 T cell:tumor cell 1:1, donor 2, 4 h co-culture (calcein AM/PI flow cytometry) is 46.4%; the cytotoxicity, Raji cells, CAR19 T cell:tumor cell 2:1, donor 1, 4 h co-culture (calcein AM/PI flow cytometry) is 25.3%; the cytotoxicity, Raji cells, CAR19 T cell:tumor cell 2:1, donor 2, 4 h co-culture (calcein AM/PI flow cytometry) was 59.9%. This substance also had a percentage of CD19 positive RS4;11 cells remaining after 24 h co-culture with CAR-T cells of 45.1% and a percentage of CD19 positive Raji cells remaining after 24 h co-culture with CAR-T cells of 7.42%.
